Data taken from patent US20250340591A1, “COMPOSITION FOR PREVENTING OR TREATING INFLAMMATORY BOWEL DISEASE CONTAINING NOVEL COMPOUND” (ANYGEN CO., LTD., priority 2021, published 2025).
Square brackets hold non-standard residues; d marks the D form. Ends that are not written are not given here. * marks the point of attachment. DAMP‑2 = 1,3-bis(2-cyclohexylethyl) substitution on the histidine imidazole ring (1,3-bis(2-cyclohexylethyl)-2,3-dihydro-1H-imidazol-4-yl side chain), C1=C(*)N(CCC2CCCCC2)CN1CCC1CCCCC1; 2‑(4-tert-butyl)phenyl = 2-(4-tert-butylphenyl) substituent on the histidine imidazole (2-(4-(tert-butyl)phenyl)-1H-imidazol-4-yl), CC(C)(C)c1ccc(*)cc1; DAMP‑5 = 3-(2-cyclohexylethyl) substitution on the histidine imidazole ring (3-(2-cyclohexylethyl)-2,3-dihydro-1H-imidazol-4-yl side chain); DAMP‑3 = 1,3-diphenethyl substitution on the histidine imidazole ring (1,3-diphenethyl-2,3-dihydro-1H-imidazol-4-yl side chain); thiophene = 2-(thiophen-2-yl) substituent on the histidine imidazole (2-(thiophen-2-yl)-1H-imidazol-4-yl), c1csc(*)c1; 4‑methoxybenzhydryl = (4-methoxyphenyl)(phenyl)methyl on the His imidazole, COc1ccc(C(c2ccccc2)*)cc1; 1,2‑diphenyl = 1,2-diphenyl substituents on the histidine imidazole (1,2-diphenyl-1H-imidazol-4-yl); 1‑phenyl = 1-phenyl substituent on the histidine imidazole (1-phenyl-1H-imidazol-4-yl), c1ccc(*)cc1; 2‑phenyl = 2-phenyl substituent on the histidine imidazole (2-phenyl-1H-imidazol-4-yl), c1ccc(*)cc1; 4‑hydroxybenzhydryl = (4-hydroxyphenyl)(phenyl)methyl on the His imidazole, Oc1ccc(C(c2ccccc2)*)cc1; Tyr(3,5-(NO2)2) = N[C@@H](Cc1cc([N+](=O)[O-])c(O)c([N+](=O)[O-])c1)C(=O)O; Tyr(3-NO2) = N[C@@H](Cc1ccc(O)c([N+](=O)[O-])c1)C(=O)O; 4‑methoxylbenzhydryl = COc1ccc(C(c2ccccc2)*)cc1; Biotin = O=C1N[C@H]2[C@H](CS[C@H]2CCCCC(=O)*)N1; dPhe(4-CF3) = N[C@H](Cc1ccc(C(F)(F)F)cc1)C(=O)O; 1‑(4-tert-butyl)phenyl = CC(C)(C)c1ccc(*)cc1; Tyr(3-Cl) = N[C@@H](Cc1ccc(O)c(Cl)c1)C(=O)O; Tyr(3-NH2) = Nc1cc(C[C@H](N)C(=O)O)ccc1O; dPhe(4-Cl) = N[C@H](Cc1ccc(Cl)cc1)C(=O)O; dPhe(4-Me) = Cc1ccc(C[C@@H](N)C(=O)O)cc1; Mtt = Cc1ccc(C(c2ccccc2)(c2ccccc2)*)cc1; Trt = c1ccc(C(c2ccccc2)(c2ccccc2)*)cc1; Benzhydryl = c1ccc(C(c2ccccc2)*)cc1; 2‑cyclohexylethyl = C1CCC(CC*)CC1; Tos = Cc1ccc(S(=O)(=O)*)cc1; Octanoyl = CCCCCCCC(=O)*

T1: GPR39 (G protein coupled receptor 39) (UniProt O43194 1-453, limits assumed)
T1 sequence (looked up): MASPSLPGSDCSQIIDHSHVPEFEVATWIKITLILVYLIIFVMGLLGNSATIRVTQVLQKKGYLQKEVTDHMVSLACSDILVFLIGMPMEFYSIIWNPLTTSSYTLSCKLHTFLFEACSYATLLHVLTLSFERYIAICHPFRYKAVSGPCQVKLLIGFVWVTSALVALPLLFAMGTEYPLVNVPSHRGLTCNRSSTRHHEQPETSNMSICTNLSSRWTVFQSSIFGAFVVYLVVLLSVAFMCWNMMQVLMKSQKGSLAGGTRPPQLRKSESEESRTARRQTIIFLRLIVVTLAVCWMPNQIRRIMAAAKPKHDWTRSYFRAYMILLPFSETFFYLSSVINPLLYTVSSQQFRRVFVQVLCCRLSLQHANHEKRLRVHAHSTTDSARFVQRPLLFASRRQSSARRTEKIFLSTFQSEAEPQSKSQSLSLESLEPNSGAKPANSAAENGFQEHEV


These binders were tested against T1, GPR39 (G protein coupled receptor 39) (assay: cell-based or functional assay).

Binder | EC50; SRE-luciferase reporter | ECmax; SRE-luciferase reporter
H(4‑hydroxybenzhydryl)K(Octanoyl)[dPhe(4-Me)]Y-OH [HKFY-65] | 3 nM | 18.3 -fold induction over basal
HK(Octanoyl)FY (not fully specified (residue 1)) [HKFY-10] | 46500 nM | 14 -fold induction over basal
H(Trt)K(Octanoyl)[dPhe(4-Cl)]Y [HKFY-13] | 14 nM | 25.7 -fold induction over basal
His(Benzhydryl)-Lys(Octanoyl)-OH [HKFY-79] | 970 nM | 11.2 -fold induction over basal
H(Benzhydryl)K(Octanoyl)[dPhe(4-Me)][Tyr(3-NH2)]-OH [HKFY-70] | 20 nM | 10.1 -fold induction over basal
[dH](Benzhydryl)K(Octanoyl)[dPhe(4-Me)]Y-OH [HKFY-62] | 830 nM | 28.1 -fold induction over basal
H(Mtt)K(Octanoyl)FY [HKFY-5] | 1840 nM | 16 -fold induction over basal
[dH](Trt)K(Octanoyl)[dPhe(4-Cl)][dY] [HKFY-14] | 20 nM | 20.9 -fold induction over basal
Biotin-H(Trt)K(Octanoyl)FY [HKFY-2] | 140 nM | 15 -fold induction over basal
H(Tos)K(Octanoyl)[dPhe(4-Me)]Y-OH [HKFY-75] | 1 nM | 15.9 -fold induction over basal
Lys(Octanoyl)-Phe-Tyr [HKFY-54] | 25900 nM | 7.8 -fold induction over basal
H(Fm)K(Octanoyl)FY [HKFY-18] | 2290 nM | 10 -fold induction over basal
H(2‑phenylethyl)K(Octanoyl)FY-OH (not fully specified) [HKFY-9] | 42700 nM | 21 -fold induction over basal
H(2‑(4-tert-butyl)phenyl)K(Octanoyl)[dPhe(4-Me)]Y-OH [HKFY-60] | 190 nM | 28.2 -fold induction over basal
H(2‑phenyl)K(Octanoyl)[dPhe(4-Me)]Y-OH [HKFY-57] | 260 nM | 8.5 -fold induction over basal
H(4‑methoxybenzhydryl)K(Octanoyl)[dPhe(4-Me)]Y-OH [HKFY-64] | 7 nM | 16 -fold induction over basal
H(Trt)K(Octanoyl)FS [HKFY-50] | 700 nM | 16.2 -fold induction over basal
H(Trt)K(caproic)FYDQQARF (also: C-terminal Phe amide in IUPAC name, not in sequence formula) [HKFY-56] | – | 14.9 -fold induction over basal
H(Benzhydryl)K(Octanoyl)[dPhe(4-Me)][Tyr(3-NO2)]-OH [HKFY-68] | 13 nM | 10.8 -fold induction over basal
H(1‑(4-tert-butyl)phenyl)K(Octanoyl)[dPhe(4-Me)]Y-OH [HKFY-61] | 20 nM | 9.88 -fold induction over basal
Biotin-H(Benzhydryl)K(Octanoyl)[dPhe(4-Me)]Y-OH [HKFY-72] | 11 nM | 10.4 -fold induction over basal
H(thiophene)K(Octanoyl)[dPhe(4-Me)]Y-OH [HKFY-63] | 6 nM | 13.5 -fold induction over basal

Binder | EC50; SRE-luciferase reporter | ECmax; SRE-luciferase reporter
H(Trt)K(Octanoyl)[dPhe(4-CF3)]Y-OH [HKFY-76] | 7 nM | 14.2 -fold induction over basal
H(Trt)GSK(Octanoyl)FY-OH [HKFY-53] | 340 nM | 8 -fold induction over basal
H(2‑cyclohexylethyl)K(Octanoyl)FY [HKFY-11] | 57800 nM | 22 -fold induction over basal
H(4‑methoxylbenzhydryl)K(Octanoyl)FY [HKFY-20] | 159000 nM | 20.3 -fold induction over basal
H(Trt)K(Octanoyl)[dF]Y-OH (not fully specified; printed as His(trt)-Lys(caprylic)-d-Phe-Tyr) [HKFY-12] | 35 nM | 20.7 -fold induction over basal
H(Trt)K(Octanoyl)LY-OH [HKFY-51] | 120 nM | 14.4 -fold induction over basal
HK(Octanoyl)FY (not fully specified; also: His1 substituent: phenethyl or phenylpropyl) [HKFY-19] | 24600 nM | 18 -fold induction over basal
H(Trt)K(Octanoyl)[dPhe(4-Cl)][dY] [HKFY-15] | 98 nM | 24.7 -fold induction over basal
H(DAMP‑3)K(Octanoyl)FY [HKFY-6] | 68400 nM | 15 -fold induction over basal
H(Trt)[dK](Octanoyl)[dPhe(4-Cl)]Y [HKFY-16] | 240 nM | 27.9 -fold induction over basal
H(Benzhydryl)K(Octanoyl)[dPhe(4-Me)]Y-NH2 [HKFY-66] | 11 nM | 20.2 -fold induction over basal
K(Octanoyl)H(Trt)FY [HKFY-55] | 2490 nM | 16.8 -fold induction over basal
H(DAMP‑5)K(Octanoyl)FY [HKFY-7] | 1560 nM | 16 -fold induction over basal
H(1,2‑diphenyl)K(Octanoyl)[dPhe(4-Me)]Y-OH [HKFY-59] | 550 nM | 6.76 -fold induction over basal
H(Benzhydryl)K(Octanoyl)[dPhe(4-Me)][Tyr(3,5-(NO2)2)] [HKFY-69] | 15 nM | 12.2 -fold induction over basal
H(Trt)K(Octanoyl)FY [HKFY-1] | 150 nM | 20.5 -fold induction over basal
H(Trt)FYDQQARF (also: C-terminal Phe amide in IUPAC name, not in sequence formula) [HKFY-52] | 56400 nM | 15.5 -fold induction over basal
H(1‑phenyl)K(Octanoyl)[dPhe(4-Me)]Y-OH [HKFY-58] | 20 nM | 9.12 -fold induction over basal
HK(Octanoyl)FY (not fully specified (residue 1)) [HKFY-17] | 8120 nM | 20 -fold induction over basal
H(Benzhydryl)K(Octanoyl)[dPhe(4-Me)][Tyr(3-Cl)]-OH [HKFY-67] | 43 nM | 10.2 -fold induction over basal
H(DAMP‑2)K(Octanoyl)FY [HKFY-8] | 33600 nM | 17.3 -fold induction over basal
